Test results from the supplement of paper PMC9170038.

How the values were obtained:
[1] = system: MS2 coat protein; assay: apparent KD of MS2 coat protein; higher = weaker reporter binding; settings: Eterna round: R107
Description: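 RNA-MaP round R107: designed RNA switches with theophylline, tryptophan, arginine or FMN aptamers are transcribed on-chip within common flanks. They are titrated with SNAP-549-labelled MS2 coat protein in RNA-MaP buffer (100 mM Tris pH 7.5, 80 mM KCl, 4 mM MgCl2), without ligand or with the indicated ligand. Median apparent KD per design.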

[2] = system: K4 kissing-loop RNA reporter; assay: apparent KD of K4 kissing-loop reporter; higher = weaker reporter binding; settings: Eterna round: R107;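 note: bound reporter read as fluorescence of individual clusters on recovered sequencing chips by microscopy, with normalized cluster intensities fitted with a binding model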
Description: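 RNA-MaP round R107: designed RNA switches with theophylline, tryptophan, arginine or FMN aptamers are transcribed on-chip within common flanks. They are titrated with a labelled K4 kissing-loop RNA reporter in RNA-MaP buffer (100 mM Tris pH 7.5, 80 mM KCl, 4 mM MgCl2), without ligand or with the indicated ligand. Median apparent KD per design.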

[3] = input ligand: theophylline 20 uM
[4] = input ligand: theophylline 2 mM
[5] = input ligand: tryptophan 2.4 mM

Sequence	apparent KD of MS2 coat protein ([1]; input ligand: arginine 13.2 mM)	apparent KD of MS2 coat protein ([1]; input ligand: none)	apparent KD of MS2 coat protein [1, 3]	apparent KD of MS2 coat protein [1, 4]	apparent KD of MS2 coat protein [1, 5]	apparent KD of K4 kissing-loop reporter ([2]; input ligand: FMN 200 uM)	apparent KD of K4 kissing-loop reporter ([2]; input ligand: arginine 13.2 mM)	apparent KD of K4 kissing-loop reporter ([2]; input ligand: none)	apparent KD of K4 kissing-loop reporter [2, 3]	apparent KD of K4 kissing-loop reporter [2, 5]
CCAUGCAGGUCGGCCGCCACUACACACAUGAGGAUCACCCAUGUAGUUACUGGGUGAAGUGGCAGUAGGACCGGGACCUGCAUAU [Brourdmod11]	94.5 nM	284 nM	330 nM	504 nM	1020 nM	–	–	–	–	–
GAACAACAUGAGGAUCACCCAUGUCAGGAUACCAGUCGAAAGUCAGACCCUUGGCAGCCUAUCACUCAGCAAAUAGAUAGUACAA [theeternabot_sameState_MS2_Theo_A_12]	14.7 nM	–	20.4 nM	–	16.2 nM	–	–	–	–	–
AAAUAAAUACAUGAGGAUCACCCAUGUGAAGGAGCGCCCGUUAGGGCAGGUAGGUCGCACAUGAAUAACUCCGUGCAAAAGCACA [ArgEX 18 #OpenEnded]	20.9 nM	29 nM	38.8 nM	37.1 nM	31.3 nM	–	–	–	–	–
UGUAUGUGAUCUGAUACCAGCUUUGAUAACCUGAGGAUCACCCUGGUAAAGGCGAAAGCCGGCCCUUGGCAGCAGAUCGCAUACU	47.3 nM	58.5 nM	56.1 nM	24.6 nM	59.7 nM	–	–	–	–	–
GAGCUGAUGUAGAGCUUAUAUAAGAGAGAUACCAGUACAGAAAUGUACCCUUGGCAGCUCAACUUUACAUGAGGAUCACCCAUGU [Ex Theophylline A 20]	12.3 nM	12.6 nM	16 nM	23.6 nM	18.1 nM	–	–	–	–	–
GGACCAUGGCGCGAUACCAGCUUGAGUGUACUGGCCAGGUACAUGAGGAUCACCCAUGUAAGCCCUUGGCAGCGCGCCAUGGUCC [#1 Exclusion - Theophylline B Attempt #24 (HarryS)]	10.4 nM	10.3 nM	16.1 nM	36.5 nM	10.7 nM	–	–	–	–	–
GUAUGGAAACAUACUUGGGUAUCAUGAGAUACCAGUACAGAAAUGUACCCUUGGCAGCUCAAGCAUACAUGAGGAUCACCCAUGU [Ex Theophylline A 8]	22.5 nM	–	22.5 nM	–	15.4 nM	–	–	–	–	–
GCCAGUCAUAGCAGGGCAAAUAUACUCGAAGGAGCGUCAUAGUAGGCAGGUAGGUCGCGAGACAUGAGGAUCACCCAUGUAGAGA [fffmullin]	30.2 nM	47.4 nM	59.8 nM	48.3 nM	32.8 nM	–	–	–	–	–
ACGUAAAGCAGAAGGAGCGUCUUCAAUUUACAUGAGGAUCACCCAUGUUUUGUGAUCAUAUGACAGGUAGGUCGCUGAAGUACGA [JR_SSArginiB_Sub002]	85.9 nM	–	152 nM	141 nM	123 nM	–	–	–	–	–
GCAUGUGGAGUCUUACUAGAGAGGACAGAUACCAGUAAGAUGUGAUACCCUUGGCAGCUGCGAUUUACAUGAGGAUCACCCAUGU [X-TheoA-ms2@67]	19.2 nM	–	21.4 nM	–	24.7 nM	–	–	–	–	–
ACAUGAGGAUCACCCAUGUUAAGCAGGGUGCGAGGACCGGUACGGCCGCCACUCGGACAUUAUUACGAGUGAAUGGUAACGAUGU [#14 Exclusion Tryptophan A]	23.3 nM	18.2 nM	29.8 nM	24.5 nM	21.7 nM	–	–	–	–	–
AGUGUUGUAACUGAUACCAGACCUUUGCUUAUACAUGAGGAUCACCCAUGUAAAAUGGCGGUCCCUUGGCAGCAGAGAAGACGCA [#10 Same State - Theophylline B]	41.5 nM	–	27 nM	–	41.9 nM	–	–	–	–	–
CCUAUGCAGUCGGCCGCCACUGAACAUGAGGAUCACCCAUGUUUUUAUAAAUAUGGUCCUAUAAUCAGGACCGGGACUGUAUAGG [Ex Tryptophan B 9]	38.3 nM	69.2 nM	59.7 nM	64.6 nM	69.2 nM	–	–	–	–	–
UAACAUGAGGAUCACCCAUGUAUAGUCGAUACCAGCUCAAGGAAGAGCCCUUGGCAGCGACACUGCCAAGCAUGGGUCAUGGCAG [(Ms2)-(Theo)-(T)'-(M)'-(T)''_Design5]	20.7 nM	–	31.9 nM	–	19.5 nM	–	–	–	–	–
ACCAUGUAAUCAGAUACCAGACAUCUUUUAAAUCAUAUUACAUGAGGAUCACCCAUGUUGGUCCCUUGGCAGCUGAAAUAUUUCA [JR_Nu_SSTheophyB_Sub025]	144 nM	–	351 nM	–	529 nM	–	–	–	–	–
UGUAUGGACUGAAGGAGCGCCUCAAAACAUGAGGAUCACCCAUGUGGACAAUAAGUCCUUGGGCAGGUAGGUCGCAGUCCAUACU [ArgBX 6 #StaticStem #MS2Late]	81.4 nM	50 nM	84.6 nM	85.3 nM	60.9 nM	–	–	–	–	–
CGCAACAUGAGGAUCACCCAUGUAAUGACGCGAGGACCGGUACGGCCGCCACUCGCCUGGCAGUGAGCGCAUGCGGCCUGGGUAU [Exclusion Tryp A GF8]	10.6 nM	–	16.5 nM	14.3 nM	–	–	–	–	–	–
GGCAGUGAUGUUGCCAGUGGCAGAUUGGAAGGAGCGUGGUGAGACACAGGUAGGUCGCUAAUUGAAGUUGCUGUCACUAAAAUGC [whbob_Ex_Arginine_A_2t131]	–	–	–	–	–	276 nM	299 nM	307 nM	260 nM	241 nM
GCGCGUCAUGUCAGCGGUGACACUGUCGAUACCAGUGCCGGAAGGCGCCCUUGGCAGCGACGUGCUGGAGUGAUGUUCCAGCGUU [#2 Exclusion - Theophylline A Attempt #28 (HarryS)]	–	–	–	–	–	136 nM	128 nM	151 nM	131 nM	130 nM

Sequence	apparent KD of MS2 coat protein ([1]; input ligand: arginine 13.2 mM)	apparent KD of MS2 coat protein ([1]; input ligand: none)	apparent KD of MS2 coat protein [1, 3]	apparent KD of MS2 coat protein [1, 4]	apparent KD of MS2 coat protein [1, 5]	apparent KD of K4 kissing-loop reporter ([2]; input ligand: FMN 200 uM)	apparent KD of K4 kissing-loop reporter ([2]; input ligand: arginine 13.2 mM)	apparent KD of K4 kissing-loop reporter ([2]; input ligand: none)	apparent KD of K4 kissing-loop reporter [2, 3]	apparent KD of K4 kissing-loop reporter [2, 5]
GGUGUGCCAGUGAUGUUGGCAUAAACUGAAGGAGCGCGUGAAAACGCAGGUAGGUCGCAGAACCUUGCCAACUAUUUUAUUCACC [Ex Arginine A K4 25]	–	–	–	–	–	181 nM	174 nM	176 nM	236 nM	168 nM
AGUAGUUGGACGGCCGCCACUAGAACGGCUUUGCCAAAGGCAGAGCACUAGAGUGAUGUUCUAGCUAGGACCGGGUCCAACUACA [Omei KL Tryp B SS A v3]	–	–	–	–	–	662 nM	204 nM	191 nM	403 nM	773 nM
GGAUCCACCAGUGAUGUUGGAGAAAACUUCAAGGAUAUGACGAAAGUCAGAAGGUGGUAGACUGGACAAAGUCCGGUGGGAUCCA [FmnA10 U29+G78]	–	–	–	–	–	622 nM	214 nM	264 nM	566 nM	198 nM
GGAUUGCCAGUGAUGUUGGCAUAAACUGAAGGAGCGCGUGAAAACGCAGGUAGGUCGCAGAACCUUGCCAACUAUUUUAUUUACC [Ex Arginine A K4 23]	–	–	–	–	–	89.3 nM	118 nM	97.9 nM	103 nM	79.8 nM
UUUGUAUAGGGAAGGAGCGUGAAUGAUAAUGAAUAUAGUGAUGUUAUAUAUAAGAAAGAAUCACAGGUAGGUCGCCCGGAGGAGG [SSArgB.J]	–	–	–	–	–	612 nM	410 nM	668 nM	1350 nM	428 nM
UGGAGUUGACGAAAAGUCAACUCCUGAGAUACCAGUGACGAAAGUCACCCUUGGCAGCUCACUGGCAGUGAUGUUGCAAAAUAAA [KL-SSTheo-A4]	–	–	–	–	–	135 nM	52.2 nM	60 nM	84.7 nM	123 nM
AGAUUCGACACGGCCGCCACUUGUGGUGGAUUAUCCUAUGUAAGACAUGAGUGAUGUUCAUGUACAAGGACCGGGUGUUGAGUCU [KL-XTryp-B4 #analogue]	–	–	–	–	–	215 nM	177 nM	199 nM	193 nM	425 nM
AACGUUUUGAGAAGGAGCGCGUUCAGCAGUGAUGUUGCUUUACUUCAAUUUCUAGAUAAUUCGCAGGUAGGUCGCUCAAUACGUA [JR_Nu_ExcArginiB_Sub023]	–	–	–	–	–	503 nM	511 nM	615 nM	706 nM	527 nM
GGAUAGGAUAGAGGAUAUGGGCUAGGCAAGAAUAACUUGUCUAGCAAAUCCAUGAGGAGUGAUGUUCCAGAAGGCUGUCCUAUCG [FmnBX 1 U9]	–	–	–	–	–	901 nM	169 nM	152 nM	211 nM	128 nM
ACCUACGAUCACAAUAGUGAUUGUAGGAACUAGGAUAUGCUGAAAAGCAGAAGGAGUGAUGUUCCAACUCAUGAAUAACAUGAGA [FmnAX 2 #OpenEnded #K4Late]	–	–	–	–	–	536 nM	252 nM	249 nM	274 nM	198 nM
AAUGUACAGGGAAGGAGCGCCGUCCAGUGAUGUUGGAGUUAAAUACCAGUGAUGUUGGUUAGGCAGGUAGGUCGCCCUAUAGUAU [#07 K4 Arginine B Exclusion]	–	–	–	–	–	126 nM	92.9 nM	117 nM	134 nM	108 nM
AAACGUUGGUGCGAUACCAGCUGAUCGGAAACGAUCUUGCUGGAGUGAUGUUCCAAGUAAAGCCCUUGGCAGCGCACCGACGAAA [MAT - Same State Theophlline B - Mod of Eli - D22]	–	–	–	–	–	92.5 nM	58.4 nM	86.5 nM	145 nM	69.3 nM
GCCGUACGCAUGGAUACCAGUCUUAGAGUGAUGUUCUAAUCGAUUGCGCCUGGAUCAAUGGACCCUUGGCAGCCAUGCGUACGGC	–	–	–	–	–	129 nM	97.3 nM	120 nM	125 nM	112 nM
UCCUGCAAUCUGCCACGAAAGUGGGUUGAUACCAGAGUCGAAAGACUCCCUUGGCAGCGAGUGAUGUUCGUUGCAGGUGAAUAAA [MatMod 9 - Jieux - Exclusion - Theophylline A]	–	–	–	–	–	118 nM	264 nM	444 nM	309 nM	323 nM
GCGUAGAUUAGCAGUGAUGUUGCUACGGAAGGAGCGCGUGAAAACGCAGGUAGGUCGCCGACAAAAUUAAUUUUAAUGUCUGCGC [KL-SSArg-A6]	–	–	–	–	–	469 nM	448 nM	596 nM	423 nM	365 nM
GGAAGAAGUGGUGUUGAUUAAGAAGCGGAAGGAGCGCCGAAGAAGGCAGGUAGGUCGCCGAAAUAUAGUGAUGUUAUAUAAAAGG [ExArg.A]	–	–	–	–	–	168 nM	170 nM	229 nM	168 nM	199 nM
GAUAUAGUGAUGUUAUAUACUGAUAGACAACGAGGACCGGUACGGCCGCCACUCGAGAGGGUGAAAAUAAUGAUAAAAUAAUAAU [ExyTryA#1]	–	–	–	–	–	343 nM	310 nM	359 nM	298 nM	265 nM
AGGGAUGAUGGAUAAAUAAACAAAAGGGAUACCAGUCAAAUAAUAGGCCCUUGGCAGCUUUAGAUCAGUGAUGUUGAAGAUAUUG [Theophylline A Same State; Euphoria Solution]	–	–	–	–	–	84.1 nM	127 nM	93 nM	159 nM	78.5 nM
